The results in this text go back to publication PMC7253601, “Rules of Expansion: an Updated Consensus Operator Site for the CopR-CopY Family of Bacterial Copper Exporter System Repressors” (mSphere, 2019).

For series [1], the target named is CopY (S. pneumoniae) (Streptococcus pneumoniae (TIGR4?)) (UniProt A0ACD7PQP7). Nature of the series: BLI. Conditions: BLI: 50 mM Tris pH 7.4, 150 mM NaCl, 4% glycerol, 1 mM TCEP, 0.1% BSA, 26 C; EMSA: Tris-borate without EDTA, 4 C, 5% PAGE.
For series [2], the target named is Streptococcus pneumoniae CopY (S. pneumoniae). Nature of the series: SEC; Superdex 200; 20 mM Tris (pH 8), 200 mM NaCl, 1 mM TCEP; elution volume compared to an SEC standard (Bio-Rad); on ice or at 4°C. (In general: In gel filtration, larger molecules generally elute earlier.)
In series [3] the target is T1, CopY (S. pneumoniae) (Streptococcus pneumoniae, UniProt A0ACD7PQP7 1-131). Nature of the series: BLI; 3 uM CopY; BLI: 50 mM Tris pH 7.4, 150 mM NaCl, 4% glycerol, 1 mM TCEP, 0.1% BSA, 26 C; EMSA: Tris-borate without EDTA, 4 C, 5% PAGE. Conditions: protein: recombinant; tags: N-terminal 6xHis removed by TEV (pMCSG7; also tested uncleaved); chain copies: 2; label: 5' biotin on forward strand; blunt. In general terms: In BLI a coated tip is dipped into the sample, and binding shifts an interference pattern.

The target in series [4] is T1, CopY (S. pneumoniae). Kind of series: BLI; BLI: 50 mM Tris pH 7.4, 150 mM NaCl, 4% glycerol, 1 mM TCEP, 0.1% BSA, 26 C; EMSA: Tris-borate without EDTA, 4 C, 5% PAGE. As to conditions: protein: recombinant; tags: N-terminal 6xHis removed by TEV (pMCSG7; also tested uncleaved); chain copies: 2; label: 5' biotin on forward strand; blunt.
Series [5] concerns the molecule itself. Kind of series: SEC; Superdex 200; 20 mM Tris (pH 8), 200 mM NaCl, 1 mM TCEP; elution volume compared to an SEC standard (Bio-Rad); on ice or at 4°C.

As to “16 bp (16 of 21 repeat bases kept: ATTGACAAATGTAGAT)”, in series [1], the Kd – broadly, the constant that tells how readily two partners part at equilibrium – was found to be 360 nM.

For the molecule 19 bp (19 of 21 repeat bases), the Kd in series [1] amounted to 37.1 nM.

In series [1], full palindrome (A13C) had a Kd of 39.6 nM.

“Streptococcus pneumoniae CopY (natural protein)”: the stoichiometry N (usually a count of units in the complex or per binding partner) in series [2] amounted to 2.

Molecule 19 bp T to C (operator position 3) returned a Kd in series [1] of 40.4 nM.

In series [1], E. hirae proximal operator displayed a Kd of 164 nM.

Molecule 14 bases (14 of 21 repeat bases) had a Kd in series [1] of over 3000 nM.

B1: SP_1863 (dsDNA)
DNA 1: ATGAATAAAACAATTGTAACACTCATC
DNA 2: GATGAGTGTTACAATTGTTTTATTCAT
As to B1, the binding result with CopY (S. pneumoniae) [3] was “no binding”.

B2: SP_0045 (dsDNA)
DNA 1: GGTGAACTAACAGATGTTTACGAAATT
DNA 2: AATTTCGTAAACATCTGTTAGTTCACC
Take B2: the binding result with CopY (S. pneumoniae) [3] was “no binding”.

B3: wild type two-operator DNA (BLI) (dsDNA)
DNA 1: TAATTGACAAATGTAGATTTTAAGAGTATACTGATGAGTGTAATTGACAAATGTAGATTTT
DNA 2: AAAATCTACATTTGTCAATTACACTCATCAGTATACTCTTAAAATCTACATTTGTCAATTA
For B3, in the series with CopY (S. pneumoniae) [4], the Kd came out at 28.1 ± 0.2 nM.

B4: SP_0090 1 (dsDNA)
DNA 1: TGATTTAGGACATTTGTTTGATAGTGG
DNA 2: CCACTATCAAACAAATGTCCTAAATCA
With B4, in the series with CopY (S. pneumoniae) [3], the binding result is reported as “no binding”.

B5: SP_1433 (dsDNA)
DNA 1: GTAATTATAACAGATGTATAATAGAAA
DNA 2: TTTCTATTATACATCTGTTATAATTAC
On to B5, for which the binding result with CopY (S. pneumoniae) [3] is on record as “no binding”.

B6: SP_0090 2 (dsDNA)
DNA 1: GAGTATACTAATAATGTAATCGTTATC
DNA 2: GATAACGATTACATTATTAGTATACTC
As for B6, the binding result in the series with CopY (S. pneumoniae) [3] is on record as “no binding”.

B7: SP_0530 (dsDNA)
DNA 1: ATTTGAGGAACAAATGTACGTTTATAA
DNA 2: TTATAAACGTACATTTGTTCCTCAAAT
With B7, the binding result in the series with CopY (S. pneumoniae) [3] is “no binding”.

B8: Enterococcus hirae CopY E86D (natural protein)
chain: MEEKRVLIKISDSEWEVMRVIWTLGQANAQQITQILADSMDWKVATVKTLLGRLVKKEALWTEQEGKKFIYHPAVSEMENVRSATDNLFSHICAKRVGATIADLVEEATLTQEDIQQIMKQLNKKEPVETIECNCIPGQCECKKQ
notes: CopY, cop operon repressor, Enterococcus hirae; cloned from genomic DNA; the methods call the gene copR; The wild type was cut by TEV inside the protein and was used uncleaved; also called E. hirae cop repressor; cleaved E86D protein; source: recombinant (pMCSG7 vector), purified (IMAC, TEV cleavage, subtractive IMAC, SEC); not shown: His6, N-terminal, cleaved
B8: the “stoichiometry N” value in series [5] is 2.

B9: Streptococcus thermophilus CopY (natural protein, S. thermophilus, UniProt Q5M352 1-143, looked up)
chain: MLAISSAEWEVMRVLWAKGQATSSEIIEILAKKLDWSASTVKTLIGRLADKGYLTSQRQGRGFIYQASLGEDEAIFQALEAVFDKICLTKHSDLLGQLIAKTPMTQADVDKLQALLLAKVPVDQVVCDCVPGQCACGHHMEVN
notes: CopY (CopR-CopY family cop operon repressor), Streptococcus thermophilus; cloned from genomic DNA; also called S. thermophilus cop operon repressor; CopR-CopY; source: recombinant (pMCSG7 vector), purified (IMAC, TEV cleavage, subtractive IMAC, SEC); not shown: His6, N-terminal, cleaved
With B9, the “stoichiometry N” value in series [5] amounted to 2.

B10: SP_2073 (dsDNA)
DNA 1: AAGGCGGAAACATGTGTCAATGACTTG
DNA 2: CAAGTCATTGACACATGTTTCCGCCTT
As for B10, the binding result with CopY (S. pneumoniae) [3] is on record as “no binding”.
